T1: GST-nsP3 (chikungunya virus, UniProt Q8JUX6 1334-1856)
T1 chain: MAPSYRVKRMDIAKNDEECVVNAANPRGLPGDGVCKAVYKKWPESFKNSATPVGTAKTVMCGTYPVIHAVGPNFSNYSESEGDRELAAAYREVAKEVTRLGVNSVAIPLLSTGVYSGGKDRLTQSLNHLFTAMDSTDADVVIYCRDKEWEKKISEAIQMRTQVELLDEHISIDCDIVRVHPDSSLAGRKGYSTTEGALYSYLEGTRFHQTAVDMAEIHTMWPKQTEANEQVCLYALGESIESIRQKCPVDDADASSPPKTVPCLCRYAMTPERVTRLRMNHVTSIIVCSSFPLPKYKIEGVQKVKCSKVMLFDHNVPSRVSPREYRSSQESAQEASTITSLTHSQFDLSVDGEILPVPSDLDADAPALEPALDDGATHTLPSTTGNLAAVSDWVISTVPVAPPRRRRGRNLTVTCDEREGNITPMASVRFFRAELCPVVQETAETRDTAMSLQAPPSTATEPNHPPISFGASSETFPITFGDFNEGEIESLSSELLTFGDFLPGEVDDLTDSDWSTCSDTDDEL

T2: GST-nsP3ΔHVD (chikungunya virus, UniProt Q8JUX6 1334-1657)
T2 chain: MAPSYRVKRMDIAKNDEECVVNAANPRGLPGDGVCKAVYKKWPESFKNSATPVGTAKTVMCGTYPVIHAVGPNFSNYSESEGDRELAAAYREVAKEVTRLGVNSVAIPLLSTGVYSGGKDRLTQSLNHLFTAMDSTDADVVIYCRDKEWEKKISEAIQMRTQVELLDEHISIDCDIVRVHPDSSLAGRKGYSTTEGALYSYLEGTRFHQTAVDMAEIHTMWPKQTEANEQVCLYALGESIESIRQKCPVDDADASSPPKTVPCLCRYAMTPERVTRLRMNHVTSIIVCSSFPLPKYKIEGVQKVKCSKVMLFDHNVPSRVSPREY

T3: C-terminal HA-tagged FHL1A (human, UniProt Q13642-1 2-280)
T3 sequence: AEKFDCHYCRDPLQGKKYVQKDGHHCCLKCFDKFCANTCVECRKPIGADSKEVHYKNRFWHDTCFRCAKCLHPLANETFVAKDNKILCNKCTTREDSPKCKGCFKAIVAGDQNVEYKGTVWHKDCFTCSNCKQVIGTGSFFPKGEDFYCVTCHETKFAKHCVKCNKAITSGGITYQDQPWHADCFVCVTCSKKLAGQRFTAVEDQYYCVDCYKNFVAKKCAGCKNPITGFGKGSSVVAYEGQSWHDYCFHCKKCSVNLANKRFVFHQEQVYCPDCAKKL

T4: C-terminal HA-tagged FHL2 (UniProt Q14192 1-279)
T4 sequence: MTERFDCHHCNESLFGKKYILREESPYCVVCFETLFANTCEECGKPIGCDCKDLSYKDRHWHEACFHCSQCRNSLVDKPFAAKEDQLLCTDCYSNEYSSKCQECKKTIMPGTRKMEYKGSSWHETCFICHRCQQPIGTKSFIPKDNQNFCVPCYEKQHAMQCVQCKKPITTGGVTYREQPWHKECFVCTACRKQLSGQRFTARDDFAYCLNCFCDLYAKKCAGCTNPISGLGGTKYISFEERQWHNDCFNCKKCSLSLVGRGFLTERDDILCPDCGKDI


Tests used:
GST-nsP3 = biological target: T1, GST-nsP3; assay: GST pull-down with purified proteins, western blot with anti-FHL1
GST-nsP3ΔHVD = biological target: T2, GST-nsP3ΔHVD; assay: as above
[1] = biological target: T3, C-terminal HA-tagged FHL1A; assay: co-immunoprecipitation, immunoblot (FIG. 4)
G3BP1 = G3BP1 (UniProt Q13283 2-466); assay: co-immunoprecipitation in ΔFHL1 cells
G3BP1, sequence (Q13283 2-466 limits assumed): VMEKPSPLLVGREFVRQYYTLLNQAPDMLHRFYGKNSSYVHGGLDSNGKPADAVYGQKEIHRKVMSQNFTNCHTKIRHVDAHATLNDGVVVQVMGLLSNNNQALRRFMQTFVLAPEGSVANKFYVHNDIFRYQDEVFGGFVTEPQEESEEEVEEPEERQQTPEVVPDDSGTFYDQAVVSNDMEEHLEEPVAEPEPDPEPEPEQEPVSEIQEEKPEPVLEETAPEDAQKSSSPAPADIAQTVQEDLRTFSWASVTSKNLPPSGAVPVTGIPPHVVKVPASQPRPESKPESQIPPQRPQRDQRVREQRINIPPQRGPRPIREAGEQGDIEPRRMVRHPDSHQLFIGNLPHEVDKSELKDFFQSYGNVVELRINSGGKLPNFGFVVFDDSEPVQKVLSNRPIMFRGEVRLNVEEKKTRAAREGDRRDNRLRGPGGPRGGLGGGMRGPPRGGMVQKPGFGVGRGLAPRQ

[2] = biological target: T4, C-terminal HA-tagged FHL2; assay: co-immunoprecipitation from co-transfected 293T cells

| Binder | binding result (GST-nsP3) | binding result (GST-nsP3ΔHVD) | binding result [1] | binding result (G3BP1) | binding result [2] |
| --- | --- | --- | --- | --- | --- |
| 6×His-FHL1A (other) AEKFDCHYCRDPLQGKKYVQKDGHHCCLKCFDKFCANTCVECRKPIGADSKEVHYKNRFWHDTCFRCAKCLHPLANETFVAKDNKILCNKCTTREDSPKCKGCFKAIVAGDQNVEYKGTVWHKDCFTCSNCKQVIGTGSFFPKGEDFYCVTCHETKFAKHCVKCNKAITSGGITYQDQPWHADCFVCVTCSKKLAGQRFTAVEDQYYCVDCYKNFVAKKCAGCKNPITGFGKGSSVVAYEGQSWHDYCFHCKKCSVNLANKRFVFHQEQVYCPDCAKKL | binds | no binding | – | – | – |
| FLAG-tagged CHIKV nsP3 (pCI-neo-3×FLAG plasmid expressing the CHIKV nsP3) (other) MAPSYRVKRMDIAKNDEECVVNAANPRGLPGDGVCKAVYKKWPESFKNSATPVGTAKTVMCGTYPVIHAVGPNFSNYSESEGDRELAAAYREVAKEVTRLGVNSVAIPLLSTGVYSGGKDRLTQSLNHLFTAMDSTDADVVIYCRDKEWEKKISEAIQMRTQVELLDEHISIDCDIVRVHPDSSLAGRKGYSTTEGALYSYLEGTRFHQTAVDMAEIHTMWPKQTEANEQVCLYALGESIESIRQKCPVDDADASSPPKTVPCLCRYAMTPERVTRLRMNHVTSIIVCSSFPLPKYKIEGVQKVKCSKVMLFDHNVPSRVSPREYRSSQESAQEASTITSLTHSQFDLSVDGEILPVPSDLDADAPALEPALDDGATHTLPSTTGNLAAVSDWVISTVPVAPPRRRRGRNLTVTCDEREGNITPMASVRFFRAELCPVVQETAETRDTAMSLQAPPSTATEPNHPPISFGASSETFPITFGDFNEGEIESLSSELLTFGDFLPGEVDDLTDSDWSTCSDTDDEL | – | – | binds | binds | binds |
